Our source for the protein production values is a protein production outcome set (Wang et al. 2014).

The nature of this data set: label from the status in PepcDB records.
On to “AANPDIMYRLLIQSVVDYAIYLLTPEGIVANWNPGAQRAKGYRAEEIVGQHYSLFYTDAERAAGLPAFNLEQARSTGRFEETGARLRKDGTAFHAHVVIEAVYDDAGQLVGFAKVTRDISERHRQELELLQAKELAEQYSQEMAKLSQFLDSVIANIP”, for which the protein production result is given as “failed”.
Turning to “AAVLTQDKNTPTYGPANGKVTVIEFFDYQCVYCSRLAPVMEQVIKAHPQTRFAFKEWPIFGGRWESSLEAAKTGLQIYQQKGADAYLAYHNGIYATGHNEGKLTTADIQQQAKKAGFDAKKAADVEPVLQSINDLAQEIGLSGTPGVIVMPTTGATEASITVFPGLADKASLEAAIKKAGG”, the protein production result was “failed”.
“ADAQLIGHTNPSGEITFGEETFTIAQALDTLERDYREVYPLNVTTADVEALPDFATALPKADTDSEEANASAGDKAVHVLLPVFPGTNSEYDMAEAFEAAGATTEFHIIRNLNSEMLAADTEAFITKLQSANILAFSGGFSLGDEPDGSAKFMAAFLRSDTVAAAIKDFVARDGLVLGICNGFQALVKSGFLPYGDPAKMSAESPTLAHNRQLRHVSRIATTRVSSVASPWLSTFTPGQQHLMPVSHGEGRFVVSEKEAQALFSAGQVAFQYVDAEGTPTMEAPANPNGSNYAIEGIISPDGRILGKMGHPERFRDGLMRNIPGMEIQDIFANAVNYCRKSQR”: the protein production entry was “failed”.
For “ADEEESTPCDNVETDQQTFACAAFNKQVAERELQSAYDELIERMRDQFGDEAGLMSRIEAAEKVWSQLRDADCKVETHAEQPGSNAYQIAWNSCIAQRSDERAEYLRSLGSQNSDEPAPED”, the protein production entry is “not failed”.
To “ADVSSSDLATLRRLTNEFQAELATLGTRVDDLEARTSELENQQFSTTTKLNGEAIFSISGATGGEPEGNDAQITFNNRLRLNLTTSFTGKDALITGLQAYNFSAGKSITGTGNVAETLFPNDASILGDSMTNLAWEPQFAGLNPQNLQPSCGNNSLCLYKLLYVRPITDKLTAFIGPKAEVTDAFPAILPFASEGQGALSRFATLNPVLRMSGGTSGTGLASAAGFIYKPNDVIDWRALYGSVNAAIPGNEGFPGTPLGAGLFNGSFIAATQLTLHPNDKLDLGLNYAYSYHQINIAGTGLTGAETRILGDLPLTTPVRFNSFGATVNWRVSPKVNLTGYGAYIMTDQANSGSAYTNLSSWMAGLYFPDAFAKGNAAGILFGQPLYRVDAGNGASLSPANIGDRQTPYQLEAFYRHQINDHISITPGAFVIFNPEGDAQNETTSVFALRTTYTF” belongs “failed”; to “AEEKVKDEAMQIMGMFQILPRLVVFDLDYTLWPFYCECRSKREMPSMYPQAKGILSALKEKGIEMAIASRSPTSDIANTFLDKLNIKPMFVAKVSKMGVTSILVGDGVTLGAFRQGLTEFTQNHNSIEKNKQVWRDKYSG”, “failed”; to “AEGRGKARADSLKAGSQGLSANKRRADGSFESVVASSLRKGDVVRVQAGEMIPGDGEVIEGVAAVNEAAITGESAPVIRESGGDRSAVTGNTQVVSDWLLVRIGANPGESTLDRMIALVEGAKRQKTPNEV”, “failed”.
In the case of “AEGTRGRSSTARCSLFGSDFVNTFDGSMYSFAGYCSYLLAGGCQKRSFSIIGDFQNGKRVSLSVYLGEFFDIHLFVNGTVTQGDQRVSMPYASKGLYLETEAGYYKLSGEAYGFVARIDGSGNFQVLLSDRYFNKTCGLCGNFNIFAEDDFMTQEGTLTSDPYDFANSWALSSGEQWCERASPPSSSCNISSGEMQKGLWEQCQLLKSTSVFARCHPLVDPEPFVALCEKTLCECAGGLECACPALLEYARTCAQEGMVLYGWTDHSACSPVCPAGMEYRQCVSPCARTCQSLHINEMCQERCVDGCSCPEGQLLDEGLCVESTECPCVHSGKRYPPGTSLSRDCNTCICRNSQWICSNEECPGECLVTGQSHFKSFDNRYFTFSGICQYLLARDCQDHSFSIVIETVQCADDRDAVCTRSVTVRLPGLHNSLVKLKHGAGVAMDGQDIQLPLLKGDLRIQHTVTASVRLSYGEDLQMDWDGRGRLLVKLSPVYAGKTCGLCGNYNGNQGDDFLTPSGLAEPRVEDFGNAWKLHGDCQDLQKQHSDPCALNPRMTRFSEEACAVLTSPTFEACHRAVSPLPYLRNCRYDVCSCSDGRECLCGALASYAAACAGRGVRVAWREPGRCELNCPKGQVYLQCGTPCNLTCRSLSYPDEECNEACLEGCFCPPGLYMDERGDCVPKAQCPCYYDGEIFQPEDIFSDHHTMCYCEDGFMHCTMSGVPGSLLPDAVLSSPLSHRSKR” it was “failed”; in that of “AEITEVRIYKSKGNGSVKAYASVSFDNEFVVKGLKVVEGEKGLWVSMPSRRMKDGSFQDVFHPVSREARDKIVDAVLKAYQEQE”, “failed”; in that of “AESESFVLDFSQPSADYLDFRNRLQADHVCLENCVLKDKAIAGTVKVQNLAFEKTVKIRMTFDTWKSYTDFPCQYVKDTYAGSDRDTFSFDISLPEKIQSYERMEFAVYYECNGQTYWDSNRGKNYRIIRAELKSTQGMTKPHSGPDLG”, “not failed”.
In the case of “AGSATITYSVLEETDRGSLVGNLAKDLGLSLRELITRGAQILSKGNKQLLQLEQKSGNLLLKEKLDREELCGSTNPCILHFQVLLKSPVQFIQGEIQLQDVNDHAPEFMEDE” it was “not failed”; in that of “AHARLQITQFAMDSVGIGIQWIDPDSGRFVYANRHTAELLGYSEQEMLTLTVSDIDPAFPLPAFHATMARLRQSRYTQFQSQIETRGGVPIPVEITLYYMEGDADAPARVIAFLTDISRRKETEQTLVQAKEAAEKANLAKTAFVANMSHEIRTPMNAILGMV”, “failed”.
As to “AHNLALGAHGEDLAARYLTEAGMEIVDRNWRSRYGEVDLIAAEGDWLVFVEVKTRRGLGYGSPAEAVTFSKQRRIRLLAVEWLRDSGRHWSRVRFDVVAIMIGHGPQPQIEHVRD”, the protein production entry is “failed”.
Consider “AHQYGVKSYIGIPRSYSHDRTDFMQSEQAEILYYDGKYEETVEFIRDFSKDNGLYDASPGSANSSIDKMMYATIAFEIYEALLTVPSYVIVPVGNGTTLAGIYHGFRRMYDEGVIDHLPRMVGVSTSGGNPIVDSWRHGYSRVVDLNPEEIRETSINEPLVSYRSFDGQDALSAIRETHGRAMYVSDEEMVYYSNLIYSAEGLNPLPASASAVAAIGHLKVKQDETVVSVITGRQI”, for which the protein production result is reported as “failed”.
Take “AIAAQTERRDAPELPDFSLLKRLARDQLIFLLEQLPGKKDLFIDADLMSPLDRIANVTILKQHEVDKLYKVELKPIVSSSDQLCFLIRPRIQTVKWISDLVNSDKVAGRFRRYKIIFTPQKFYACETVLEEQGVYGDVTTDEWNFYILPLDDDILSLELPEFFRDNFLEGDQRWVTTGGGALHLLQSVYGSFSKVYGIGRCAKMVYESWRELMEEGEQRTRQPEFAKVFLIDRDVDFVTPLCSQVVYEGLVDDIFRIKCSSVEFGPDVTSSDKSIKVMLNSQDKVFNEIRNEHFSNVFGFLSQKAKNLQTAYDKRRGMDIQQMKAFVADELKGLKQEHRLLSLHIGASESIMKKKTKQDFQELLKTEHSLLEGFEIRECIAYIEEHINRQVSMIDSLRLLCLLSITENGLLSKDYRSLKAQYLQSYGIEHLLTFANLRQLGLLEEQQTGETLTVMESKVGKLVNDKTAGKLTDAFSSLAKKSNFRALSKRLALVPKSGEEYDLRVPRDMAYIFSGAYIPLSCKLIEQVLERDGWTGLEEVTRMLNGQDFAVTGGSSSSEARNKSNGQRIILVMFLGGCTYSEISALRFLGKERGCRFIVLTTAITNSGRLLEALLDKHV”: the protein production entry is reported as “failed”.
In the case of “AIARSEWPFDYASEADAMLHRITPENFEKLVRFAARLLRVGEIIALPTDTVYGLAAAARNSHGIELLYQTKQRDLRKPLAIAVPSVEDVSVYLHTEHLPPGLLEAILPGPLTLLLRQREDYVGIDLQDVRIDQYRGWERAKRLAPNLNLRRDGLLGVRVPDASFACAVSRELGDPLALTSANVSGRGDCGSVDEFRALWSACAAVFDGGAMPKPVMPSTVVDLSVPGTFRITRAGWMATDLVRILENKFGLTNKSANTSN” it was “failed”.
With “AIASRAASLRAELTSLANAFEEERISSAERLDADLVRQAVEQAKPENLEQWKQVVHDATAKLQQFWEDSEQALIRETYALATSYLRESDDEVHRLQMTKKALEEQLETERRRSTRIEEQLAALQSRLLDSAAPAATTPADDARTQQEVLRSELQGFMQELVRNQRESLRVLQEELQRVREEASVREENLLRQIAHLKTELAVARTDNEVSSRQLRQLETSAGREEVQDELGPGTIWPPHLTPRRGHRRFQRHNRLEDAPAPPEF”, the protein production result is reported as “failed”.
